Test results: paper PMC4323944 (Journal of molecular biology, 2014)
Residue numbers refer to the chain shown, from its start. Numbers in names are those of the source. One block for each binder: values may come before it.

Key:
[1] = target: the molecule itself; assay: pulsed dipolar ESR spectroscopy
SEC-MALS = target: the molecule itself; assay: SEC-MALS
[2] = target: T1, T. maritima FliM middle domain (FliMM, residues 46-242) (Thermotoga maritima, UniProt Q9WZE6 46-242); assay: crystal structure
T1 sequence (looked up): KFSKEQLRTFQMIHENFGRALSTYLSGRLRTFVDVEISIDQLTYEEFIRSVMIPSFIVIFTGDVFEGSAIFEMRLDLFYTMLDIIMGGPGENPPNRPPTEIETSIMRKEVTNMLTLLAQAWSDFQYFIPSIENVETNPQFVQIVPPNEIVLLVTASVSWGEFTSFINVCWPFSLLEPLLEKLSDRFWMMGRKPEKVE

B1: FliG Q129W 160-R1 (FliGMC Q129W K160C, MTSSL spin-labeled) (domain or fragment, Thermotoga maritima, UniProt Q9WY63 116-335, looked up)
chain: PVQLVNFLQSEHPWTIAVVLSYLDPPVAAQILGALPEELQTEVLCRIALLERTSPEVVKEIERNLEKKISGFVSRTFSKVGGIDTAAEIMNNLDRTTEKKIMDKLVQENPELADEIRRRMFVFEDILKLDDRSIQLVLREVDTRDLALALKGASDELKEKIFKNMSKRAAALLKDELEYMGPVRLKDVEEAQQKIINIIRRLEEAGEIVIARGGGEELIM
modifications: nitroxide side chain R1 (MTSSL on Cys 160)
binding result [1]: binds

B2: FliG 160-R1 (FliGMC K160C, MTSSL spin-labeled) (domain or fragment, Thermotoga maritima, UniProt Q9WY63 116-335, looked up)
chain: B1 chain with W14Q
modifications: nitroxide side chain R1 (MTSSL on Cys 160)
stoichiometry N (SEC-MALS): 2

B3: FliG 174-R1 (FliGMC K174C, MTSSL spin-labeled) (domain or fragment, Thermotoga maritima, UniProt Q9WY63 116-335, looked up)
chain: B1 chain with W14Q, C45K, K59C
modifications: nitroxide side chain R1 (MTSSL on Cys 174)
binding result [1]: binds

binding result [2]: binds
B4: T. maritima FliG middle domain (FliGM, residues 117-195) (domain or fragment, Thermotoga maritima, UniProt Q9WY63 117-195, looked up)
chain: VQLVNFLQSEHPQTIAVVLSYLDPPVAAQILGALPEELQTEVLKRIALLERTSPEVVKEIERNLEKKISGFVSRTFSKV
